{"source": "paper PMC7949130", "key": {"[1]": {"molecular_target": "native sulfated human cationic trypsin purified from pancreatic juice (human)", "experiment": "dissociation rate assay (recovery of trypsin activity after dilution of the complex); complex of 11 nM SPINK1 and 10 nM trypsin formed for 1 h at 23 °C, diluted to 50-200 pM with 0.6 mM Z-Gly-Pro-Arg-AMC, 0.1 M Tris-HCl (pH 8.0), 150 mM NaCl, 1 mM CaCl2, 0.05% Tween 20, room temperature, followed for 1 h"}, "[2]": {"molecular_target": "nonsulfated human cationic trypsin purified from E. coli (human)", "experiment": "dissociation rate assay (recovery of trypsin activity after dilution of the complex); complex of 11 nM SPINK1 and 10 nM trypsin formed for 1 h at 23 °C, diluted to 50-200 pM with 0.6 mM Z-Gly-Pro-Arg-AMC, 0.1 M Tris-HCl (pH 8.0), 150 mM NaCl, 1 mM CaCl2, 0.05% Tween 20, room temperature, followed for 1 h"}, "[3]": {"molecular_target": "native sulfated human cationic trypsin purified from pancreatic juice (human)", "experiment": "KD calculated from the rate constants (association and dissociation rate assays); KD(calc): equilibrium dissociation constant calculated from kon and koff of the activity-based rate assays"}, "[4]": {"molecular_target": "nonsulfated human cationic trypsin purified from E. coli (human)", "experiment": "KD calculated from the rate constants (association and dissociation rate assays); KD(calc): equilibrium dissociation constant calculated from kon and koff of the activity-based rate assays"}, "[5]": {"molecular_target": "native sulfated human cationic trypsin purified from pancreatic juice (human)", "experiment": "equilibrium binding assay (free trypsin activity on a fluorogenic substrate); fixed trypsin incubated with increasing SPINK1, 0.2 ml, 0.1 M Tris-HCl (pH 8.0), 150 mM NaCl, 1 mM CaCl2, 0.05% Tween 20, 15 h; free trypsin measured with Z-Gly-Pro-Arg-AMC; apparent KD, global fit of at least three experiments"}, "[6]": {"molecular_target": "native sulfated human cationic trypsin purified from pancreatic juice (human)", "experiment": "discontinuous association rate assay (residual trypsin activity); 50 pM trypsin mixed with 500 pM SPINK1, 0.1 M Tris-HCl (pH 8.0), 150 mM NaCl, 1 mM CaCl2, 0.05% Tween 20, 23 °C; kon from the pseudo-first-order rate constant divided by the inhibitor concentration"}, "[7]": {"molecular_target": "nonsulfated human cationic trypsin purified from E. coli (human)", "experiment": "discontinuous association rate assay (residual trypsin activity); 50 pM trypsin mixed with 500 pM SPINK1, 0.1 M Tris-HCl (pH 8.0), 150 mM NaCl, 1 mM CaCl2, 0.05% Tween 20, 23 °C; kon from the pseudo-first-order rate constant divided by the inhibitor concentration"}, "[8]": {"molecular_target": "sulfated human cationic trypsin purified from the conditioned medium of transfected HEK 293T cells (human)", "experiment": "equilibrium binding assay (free trypsin activity on a fluorogenic substrate); fixed trypsin incubated with increasing SPINK1, 0.2 ml, 0.1 M Tris-HCl (pH 8.0), 150 mM NaCl, 1 mM CaCl2, 0.05% Tween 20, 15 h; free trypsin measured with Z-Gly-Pro-Arg-AMC; apparent KD, global fit of at least three experiments"}, "[9]": {"molecular_target": "native sulfated human cationic trypsin purified from pancreatic juice (human)", "experiment": "equilibrium binding assay (free trypsin activity on a fluorogenic substrate); fixed trypsin incubated with increasing SPINK1, 0.2 ml, 0.1 M Tris-HCl (pH 8.0), 150 mM NaCl, 1 mM CaCl2, 0.05% Tween 20, 15 h; free trypsin measured with Z-Gly-Pro-Arg-AMC; apparent KD, global fit of at least three experiments", "remark": "listed apart in the source"}, "[10]": {"molecular_target": "nonsulfated human cationic trypsin purified from the conditioned medium of transfected HEK 293T cells (human)", "experiment": "equilibrium binding assay (free trypsin activity on a fluorogenic substrate); fixed trypsin incubated with increasing SPINK1, 0.2 ml, 0.1 M Tris-HCl (pH 8.0), 150 mM NaCl, 1 mM CaCl2, 0.05% Tween 20, 15 h; free trypsin measured with Z-Gly-Pro-Arg-AMC; apparent KD, global fit of at least three experiments"}, "[11]": {"molecular_target": "nonsulfated human cationic trypsin purified from E. coli (human)", "experiment": "equilibrium binding assay (free trypsin activity on a fluorogenic substrate); fixed trypsin incubated with increasing SPINK1, 0.2 ml, 0.1 M Tris-HCl (pH 8.0), 150 mM NaCl, 1 mM CaCl2, 0.05% Tween 20, 15 h; free trypsin measured with Z-Gly-Pro-Arg-AMC; apparent KD, global fit of at least three experiments"}, "[12]": {"molecular_target": "native sulfated human cationic trypsin purified from pancreatic juice (human)", "experiment": "equilibrium binding assay (free trypsin activity on a fluorogenic substrate); as the equilibrium assay but K41N SPINK1 incubated with trypsin for 1 h; 0.1 M Tris-HCl (pH 8.0), 150 mM NaCl, 1 mM CaCl2, 0.05% Tween 20; apparent KD"}, "[13]": {"molecular_target": "nonsulfated human cationic trypsin purified from E. coli (human)", "experiment": "equilibrium binding assay (free trypsin activity on a fluorogenic substrate); fixed trypsin incubated with increasing SPINK1, 0.2 ml, 0.1 M Tris-HCl (pH 8.0), 150 mM NaCl, 1 mM CaCl2, 0.05% Tween 20, 15 h; free trypsin measured with Z-Gly-Pro-Arg-AMC; apparent KD, global fit of at least three experiments", "remark": "listed apart in the source"}}}
{"binder": "serine protease inhibitor Kazal type 1 (SPINK1), wildtype, C-terminal 10His tag (natural protein) DSLGREAKCYNELNGCTKIYDPVCGTDGNTYPNECVLCFENRKRQTSILIQKSGPC", "values": [{"measurement": "koff", "setting": "[1]", "result": "5.48e-05", "unit": "s⁻¹"}, {"measurement": "koff", "setting": "[2]", "result": "8.2e-06", "unit": "s⁻¹"}, {"measurement": "Kd", "setting": "[3]", "result": 0.0158, "unit": "nM"}, {"measurement": "Kd", "setting": "[4]", "result": 0.0027, "unit": "nM"}, {"measurement": "Kd", "setting": "[5]", "result": 0.0674, "unit": "nM"}, {"measurement": "kon", "setting": "[6]", "result": "3.5e+06", "unit": "M⁻¹ s⁻¹"}, {"measurement": "kon", "setting": "[7]", "result": "3e+06", "unit": "M⁻¹ s⁻¹"}, {"measurement": "Kd", "setting": "[8]", "result": 0.0402, "unit": "nM"}, {"measurement": "Kd", "setting": "[9]", "result": 0.0622, "unit": "nM"}, {"measurement": "Kd", "setting": "[10]", "result": 0.0044, "unit": "nM"}, {"measurement": "Kd", "setting": "[11]", "result": 0.0011, "unit": "nM"}]}
{"binder": "SPINK1 variant N37S, C-terminal 10His tag (natural protein) DSLGREAKCYNELSGCTKIYDPVCGTDGNTYPNECVLCFENRKRQTSILIQKSGPC", "values": [{"measurement": "Kd", "setting": "[9]", "result": 0.0869, "unit": "nM"}]}
{"binder": "SPINK1 variant N34S, C-terminal 10His tag (natural protein) DSLGREAKCYSELNGCTKIYDPVCGTDGNTYPNECVLCFENRKRQTSILIQKSGPC", "values": [{"measurement": "koff", "setting": "[1]", "result": "4.5e-05", "unit": "s⁻¹"}, {"measurement": "koff", "setting": "[2]", "result": "7e-06", "unit": "s⁻¹"}, {"measurement": "Kd", "setting": "[3]", "result": 0.0164, "unit": "nM"}, {"measurement": "Kd", "setting": "[4]", "result": 0.0013, "unit": "nM"}, {"measurement": "kon", "setting": "[6]", "result": "2.7e+06", "unit": "M⁻¹ s⁻¹"}, {"measurement": "kon", "setting": "[7]", "result": "5.3e+06", "unit": "M⁻¹ s⁻¹"}, {"measurement": "Kd", "setting": "[8]", "result": 0.0375, "unit": "nM"}, {"measurement": "Kd", "setting": "[9]", "result": 0.0323, "unit": "nM"}, {"measurement": "Kd", "setting": "[10]", "result": 0.0047, "unit": "nM"}, {"measurement": "Kd", "setting": "[11]", "result": 0.0015, "unit": "nM"}]}
{"binder": "SPINK1 variant Q68R, C-terminal 10His tag (natural protein) DSLGREAKCYNELNGCTKIYDPVCGTDGNTYPNECVLCFENRKRRTSILIQKSGPC", "values": [{"measurement": "Kd", "setting": "[9]", "result": 0.068, "unit": "nM"}]}
{"binder": "SPINK1 variant K41N, C-terminal 10His tag (natural protein) DSLGREAKCYNELNGCTNIYDPVCGTDGNTYPNECVLCFENRKRQTSILIQKSGPC", "values": [{"measurement": "Kd", "setting": "[12]", "result": 1290, "unit": "nM"}]}
{"binder": "SPINK1 mutant Y43R (natural protein) DSLGREAKCYNELNGCTKIRDPVCGTDGNTYPNECVLCFENRKRQTSILIQKSGPC", "values": [{"measurement": "Kd", "setting": "[5]", "result": 0.0271, "unit": "nM"}, {"measurement": "Kd", "setting": "[13]", "result": 0.104, "unit": "nM"}]}
{"binder": "SPINK1 variant R65Q, C-terminal 10His tag (natural protein) DSLGREAKCYNELNGCTKIYDPVCGTDGNTYPNECVLCFENQKRQTSILIQKSGPC", "values": [{"measurement": "Kd", "setting": "[9]", "result": 0.0592, "unit": "nM"}]}
{"binder": "SPINK1 variant I42M, C-terminal 10His tag (natural protein) DSLGREAKCYNELNGCTKMYDPVCGTDGNTYPNECVLCFENRKRQTSILIQKSGPC", "values": [{"measurement": "Kd", "setting": "[9]", "result": 0.2, "unit": "nM"}]}
{"binder": "SPINK1 mutant Y43A (natural protein) DSLGREAKCYNELNGCTKIADPVCGTDGNTYPNECVLCFENRKRQTSILIQKSGPC", "values": [{"measurement": "Kd", "setting": "[5]", "result": 0.0622, "unit": "nM"}, {"measurement": "Kd", "setting": "[13]", "result": 0.0203, "unit": "nM"}]}
{"binder": "SPINK1 variant P55S, C-terminal 10His tag (natural protein) DSLGREAKCYNELNGCTKIYDPVCGTDGNTYSNECVLCFENRKRQTSILIQKSGPC", "values": [{"measurement": "Kd", "setting": "[9]", "result": 0.101, "unit": "nM"}]}
